Patent publication US8728472B2, “Antibodies that bind selectively to P25 and uses therefor” (The Board of Regents of the University of Texas System, priority 2009, dated 2014)
“Also recorded” adds a separate entry of the source.

What was measured:
[1] = molecular target: T1, Cdk5/p25 (Homo sapiens, UniProt Q15078); assay: Inhibition of Cdk5/p25 kinase activity by monoclonal antibody; format: biochemical; details: FIG. 4
T1 construct: cleaves p35, thereby removing the first 100 amino acids to produce p25
T1 sequence (Q15078 99-307 limits assumed): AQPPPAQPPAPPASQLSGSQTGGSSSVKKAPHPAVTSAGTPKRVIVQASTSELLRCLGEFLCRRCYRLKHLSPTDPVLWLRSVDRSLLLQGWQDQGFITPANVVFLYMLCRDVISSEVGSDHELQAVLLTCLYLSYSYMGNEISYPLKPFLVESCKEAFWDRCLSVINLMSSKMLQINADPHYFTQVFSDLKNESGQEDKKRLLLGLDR

[2] = system: PKA; assay: Effect of monoclonal antibody on PKA activity; format: biochemical; details: FIG. 4
[3] = molecular target: T2, p25 (Rattus norvegicus, UniProt P61810); assay: Immunoblotting and immunostaining for p25 (p25-GFP lysates, transfected HEK293T cells, ischemic tissue); format: binding; details: compared with commercial p35/p25 Ab
T2 construct: cleaves p35, thereby removing the first 100 amino acids to produce p25; expressed in transfected cells; host or cells: HEK293T; also purified Sf9 protein, p25-GFP transgenic mouse striatum, rat ischemic brain and neurons
T2 sequence (P61810 99-307): as the sequence (Q15078 99-307 limits assumed) above, with G23V, V35I counted along it
Source text: (§1) Cdk5/p25 proteins (FIG. 2A) were co-expressed in Sf9 insect cells from a Baculovirus vector (pBAC4X-1) encoding the genes for the human proteins. […] The proteins were absorbed to a Ni-NTA column, eluted and further purified by FPLC S-sepharose HP column chromatography. Mice received intrasplenic injections of pure Cdk5/p25 conjugated to biodegradable microparticles to optimize antigen presentation. ELISA assays were used to initially screen mice sera for antibody production using pure Cdk5/p25 followed by Western blotting of the pure Cdk5/p25 and striatal cell lysates from a p25 (p25-GFP) over-expressing mouse line (FIG. 2B). When both assays yielded positive results, a hemisplenectomy was performed and B cells were fused with SP2/0-IL6 myeloma cells to make hybridomas. Hybridoma culture supernatants were screened by ELISA, immunoblotting of pure protein (FIG. 2A), and immunohistochemical staining of HEK293T cultured cells transfected with Cdk5, p35, Cdk5/p35, p25, Cdk5/p25, or negative control (blank) eukaryotic expression plasmids (FIG. 2C). Hybridoma lines producing antibodies selective for p25 were re-derived and screens were repeated.
(§2) Abs to p35, DARPP-32 (Nishi et al., 1997), GFAP, and p25 were used to stain rat coronal cryosections (20 μm) from control and stroked hemispheres. […] See Methods for further details.

[4] = system: p25; assay: as above; format: binding
Source text: as §1, §2

[5] = molecular target: T3, p35 (Mus musculus, UniProt P61809); assay: Immunoblotting and immunostaining for p35; format: binding; details: immunoblot
T3 construct: from tissue; host or cells: striatal homogenates of p25-GFP over-expressing mice
T3 sequence (P61809 whole entry): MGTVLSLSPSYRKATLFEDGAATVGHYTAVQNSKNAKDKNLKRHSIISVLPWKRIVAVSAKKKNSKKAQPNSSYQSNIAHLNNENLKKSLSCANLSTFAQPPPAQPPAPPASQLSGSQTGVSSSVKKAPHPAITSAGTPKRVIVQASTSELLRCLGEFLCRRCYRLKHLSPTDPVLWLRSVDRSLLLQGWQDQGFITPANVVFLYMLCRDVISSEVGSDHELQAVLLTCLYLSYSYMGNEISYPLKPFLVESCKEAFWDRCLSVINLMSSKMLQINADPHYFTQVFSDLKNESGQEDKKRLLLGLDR
Source text: as §1, §2

[6] = listed as anti-p25 monoclonal antibody

B1: 1C4: monoclonal antibody binding p25 but not p35, produced by hybridoma cell line 1C4 (ATCC PTA-8555) (antibody, V domains shown)
VH: QIQLEESGPELRKPGETVRISCKASGYTFTTAGMQWVQKMPGTGLKWIGWINTHSGVPKYAGEFTGRFDFSLETSASTAYLQIVNLKNEDTATYFCARYGKFGEMDYWGQGTSVTVSS
VL: IVMTQSPASLAVSLGQRATISCRSSETVDSDGNSFMHWYQQKPGQSPKLLLYLASTLESGVPARFSGSGSRTDFTLTIDPVEADDAATYYCHQNNEDPTFGGGTKLEIKR
inhibition of Cdk5/p25 activity [1]: almost completely inhibits Cdk5 activity | inhibition of Cdk5/p25 activity [1, 6]: inhibits Cdk5/p25 activity | effect on PKA activity [2]: no effect on PKA | effect on PKA activity [2, 6]: little or no effect on PKA activity | sensitivity of detection of p25 generated by MCAO [3]: greater sensitivity than a commercial p35/p25 Ab | detection of p25 ([4]; immunoblot of lysates from GFP-p25 over-expressing mice, focal ischemia in brain slices and cultured neurons, listed as anti-p25 monoclonal antibody): detects transgenic p25-GFP; also recorded: strongly detects p25 generated in response to focal ischemia | staining of cells transfected with expression vectors ([4]; transfected cells, p25 vs p35 expression vector): only stains cells transfected with an expression vector for p25 but not p35 | reactivity with p35 [5]: does not react with p35 at all
